Here are results for 66 substances from the array DNA melting data of Ke et al..

A short description of this data set: melting temperature; melt of duplexes. Particulars: sodium 0.0675 M; strand 1 µM.
As to “CGACGTGCCGTATGTGCTG+CAGCACATCATGCACGTCG ((((((((...((((((((+))))))))...))))))))”, the Tm is 48.9 °C.
“CGACGTGCGTGATGTGCTG+CAGCACATCGTGCACGTCG ((((((((..(((((((((+)))))))))..))))))))”: the Tm was determined as 54.5 °C.
As to “CGACGTGCATAATGTGCTG+CAGCACATATCGCACGTCG ((((((((...((((((((+))))))))...))))))))”, the Tm was found to be 48.6 °C.
With “CGACGTGCACCATGTGCTG+CAGCACATCCTGCACGTCG (((((((((..((((((((+))))))))..)))))))))” the figure was 44.7 °C; with “CGACGTGCATCATGTGCTG+CAGCACATATCGCACGTCG ((((((((...((((((((+))))))))...))))))))”, 47.4 °C.
Take “CGACGTGCTAAATGTGCTG+CAGCACATGACGCACGTCG ((((((((...((((((((+))))))))...))))))))”: the Tm was 50.2 °C.
Turning to “CGACGTGCTTTATGTGCTG+CAGCACATCTTGCACGTCG ((((((((...((((((((+))))))))...))))))))”, the Tm was 48.5 °C.
For the substance “CGACGTGCCGGATGTGCTG+CAGCACATCAGGCACGTCG (((((((((.(((((((((+))))))))).)))))))))”, the Tm worked out at 62.6 °C.
Regarding “CGACGTGCTCAATGTGCTG+CAGCACATTTAGCACGTCG (((((((((.(((((((((+))))))))).)))))))))”, the Tm was found to be 54.7 °C.
As to “CGACGTGCGGTATGTGCTG+CAGCACATGCTGCACGTCG ((((((((.(.((((((((+)))))))).).))))))))”, the Tm stood at 56.1 °C.
Take “CGACGTGCCCGATGTGCTG+CAGCACATAATGCACGTCG ((((((((...((((((((+))))))))...))))))))”: the Tm is 48.1 °C.
As for “CGACGTGCACGATGTGCTG+CAGCACATTACGCACGTCG ((((((((...((((((((+))))))))...))))))))”, the Tm is 46 °C.
Consider “CGACGTGCGCCATGTGCTG+CAGCACATCCTGCACGTCG ((((((((...((((((((+))))))))...))))))))”, for which the Tm was found to be 47.3 °C.
As for “CGACGTGCATCATGTGCTG+CAGCACATTGGGCACGTCG ((((((((...((((((((+))))))))...))))))))”, the Tm was 50 °C.
The same measure for “CGACGTGCCGTATGTGCTG+CAGCACATAAAGCACGTCG ((((((((..(((((((((+)))))))))..))))))))”: 51.5 °C; for “CGACGTGCATCATGTGCTG+CAGCACATTCAGCACGTCG ((((((((...((((((((+))))))))...))))))))”: 47.8 °C.
For “CGACGTGCCCCATGTGCTG+CAGCACATTCTGCACGTCG ((((((((...((((((((+))))))))...))))))))”, the Tm was found to be 46.9 °C.
For “CGACGTGCGAAATGTGCTG+CAGCACATAGGGCACGTCG ((((((((...((((((((+))))))))...))))))))”, the Tm was 49.9 °C.
Take “CGACGTGCACCATGTGCTG+CAGCACATAGCGCACGTCG ((((((((.(.((((((((+)))))))).).))))))))”: the Tm was 46.1 °C.
For “CGACGTGCATTATGTGCTG+CAGCACATTTCGCACGTCG ((((((((...((((((((+))))))))...))))))))”, the Tm stood at 48.3 °C.
Consider “CGACGTGCAATATGTGCTG+CAGCACATTGTGCACGTCG (((((((((..((((((((+))))))))..)))))))))”, for which the Tm was determined as 49.1 °C.
“CGACGTGCGTCATGTGCTG+CAGCACATAACGCACGTCG ((((((((((.((((((((+)))))))).))))))))))”: the Tm was determined as 58 °C.
With “CGACGTGCAACATGTGCTG+CAGCACATGTCGCACGTCG ((((((((.((((((((((+)))))))))).))))))))”, the Tm was found to be 57.8 °C.
The same measure for “CGACGTGCACTATGTGCTG+CAGCACATCTTGCACGTCG (((((((((..((((((((+))))))))..)))))))))”: 46.5 °C; for “CGACGTGCGGAATGTGCTG+CAGCACATTCCGCACGTCG (((((((((((((((((((+)))))))))))))))))))”: 66.6 °C.
“CGACGTGCCATATGTGCTG+CAGCACATTCCGCACGTCG ((((((((...((((((((+))))))))...))))))))”: the Tm was determined as 48.1 °C.
Take “CGACGTGCGTTATGTGCTG+CAGCACATGAAGCACGTCG ((((((((.(.((((((((+)))))))).).))))))))”: the Tm was 54.8 °C.
With “CGACGTGCTCCATGTGCTG+CAGCACATTGAGCACGTCG ((((((((((.((((((((+)))))))).))))))))))”, the Tm came out at 56.5 °C.
For “CGACGTGCATCATGTGCTG+CAGCACATGGTGCACGTCG (((((((((.(((((((((+))))))))).)))))))))”, the Tm turned out to be 60.1 °C.
The same measure for “CGACGTGCGTTATGTGCTG+CAGCACATATAGCACGTCG ((((((((..(((((((((+)))))))))..))))))))”: 54.5 °C.
“CGACGTGCGAGATGTGCTG+CAGCACATCAAGCACGTCG ((((((((..(((((((((+)))))))))..))))))))”: the melting temperature (Tm) was 58.6 °C.
On to “CGACGTGCCTAATGTGCTG+CAGCACATGAGGCACGTCG ((((((((((.((((((((+)))))))).))))))))))”, for which the Tm is 58.5 °C.
On to “CGACGTGCTTAATGTGCTG+CAGCACATGCAGCACGTCG (((((((((..((((((((+))))))))..)))))))))”, for which the Tm was 52 °C.
For the substance “CGACGTGCGTAATGTGCTG+CAGCACATCAGGCACGTCG ((((((((.(.((((((((+)))))))).).))))))))”, the Tm turned out to be 51.5 °C.
Regarding “CGACGTGCGAAATGTGCTG+CAGCACATCGTGCACGTCG ((((((((...((((((((+))))))))...))))))))”, the Tm is 44.7 °C.
In the case of “CGACGTGCTGAATGTGCTG+CAGCACATGCAGCACGTCG ((((((((((.((((((((+)))))))).))))))))))”, the Tm was 59.7 °C.
Turning to “CGACGTGCTTTATGTGCTG+CAGCACATAACGCACGTCG ((((((((.((((((((((+)))))))))).))))))))”, the melting temperature (Tm) was determined as 53.6 °C.
The same measure for “CGACGTGCTGAATGTGCTG+CAGCACATCTTGCACGTCG ((((((((...((((((((+))))))))...))))))))”: 50.5 °C.
With “CGACGTGCCTTATGTGCTG+CAGCACATCCCGCACGTCG ((((((((...((((((((+))))))))...))))))))”, the melting temperature (Tm) was 46.8 °C.
The same measure for “CGACGTGCGCGATGTGCTG+CAGCACATCGTGCACGTCG ((((((((.((((((((((+)))))))))).))))))))”: 62.4 °C.
Take “CGACGTGCAAGATGTGCTG+CAGCACATGGGGCACGTCG ((((((((...((((((((+))))))))...))))))))”: the Tm is 50.8 °C.
On to “CGACGTGCTTAATGTGCTG+CAGCACATTACGCACGTCG ((((((((.((((((((((+)))))))))).))))))))”, for which the Tm worked out at 54.8 °C.
For “CGACGTGCAGGATGTGCTG+CAGCACATGATGCACGTCG (((((((((..((((((((+))))))))..)))))))))”, the Tm is 55 °C.
Consider “CGACGTGCGCAATGTGCTG+CAGCACATCACGCACGTCG (((((((((..((((((((+))))))))..)))))))))”, for which the Tm amounted to 54 °C.
Regarding “CGACGTGCGTCATGTGCTG+CAGCACATTAAGCACGTCG ((((((((.(.((((((((+)))))))).).))))))))”, the Tm stood at 53.3 °C.
“CGACGTGCGCTATGTGCTG+CAGCACATCCCGCACGTCG (((((((((..((((((((+))))))))..)))))))))”: the Tm worked out at 52.1 °C.
For the substance “CGACGTGCAGGATGTGCTG+CAGCACATTCGGCACGTCG ((((((((.(.((((((((+)))))))).).))))))))”, the Tm was 56.2 °C.
Turning to “CGACGTGCAGGATGTGCTG+CAGCACATCCGGCACGTCG ((((((((.((((((((((+)))))))))).))))))))”, the Tm came to 62.2 °C.
With “CGACGTGCGCTATGTGCTG+CAGCACATGTCGCACGTCG (((((((((..((((((((+))))))))..)))))))))” the figure was 54.8 °C; with “CGACGTGCCACATGTGCTG+CAGCACATACTGCACGTCG ((((((((...((((((((+))))))))...))))))))”, 47.2 °C.
As to “CGACGTGCTCCATGTGCTG+CAGCACATTCCGCACGTCG ((((((((...((((((((+))))))))...))))))))”, the Tm was 45.6 °C.
Turning to “CGACGTGCATTATGTGCTG+CAGCACATCTCGCACGTCG ((((((((...((((((((+))))))))...))))))))”, the Tm stood at 47.1 °C.
As to “CGACGTGCTTTATGTGCTG+CAGCACATATCGCACGTCG ((((((((..(((((((((+)))))))))..))))))))”, the Tm came out at 49.1 °C.
With “CGACGTGCTGAATGTGCTG+CAGCACATCCAGCACGTCG ((((((((((.((((((((+)))))))).))))))))))”, the Tm came to 57.6 °C.
The same measure for “CGACGTGCAGTATGTGCTG+CAGCACATCGTGCACGTCG (((((((((..((((((((+))))))))..)))))))))”: 48.2 °C; for “CGACGTGCTGTATGTGCTG+CAGCACATTTTGCACGTCG ((((((((...((((((((+))))))))...))))))))”: 49.2 °C.
With “CGACGTGCCTGATGTGCTG+CAGCACATCTGGCACGTCG (((((((((.(((((((((+))))))))).)))))))))” the figure was 61.1 °C.
As to “CGACGTGCTCCATGTGCTG+CAGCACATGCAGCACGTCG (((((((((.(((((((((+))))))))).)))))))))”, the Tm came to 55.3 °C.
In the case of “CGACGTGCTAAATGTGCTG+CAGCACATGGCGCACGTCG ((((((((...((((((((+))))))))...))))))))”, the Tm was 51.2 °C.
Consider “CGACGTGCCATATGTGCTG+CAGCACATCAAGCACGTCG ((((((((...((((((((+))))))))...))))))))”, for which the Tm worked out at 48.6 °C.
“CGACGTGCTTGATGTGCTG+CAGCACATGCCGCACGTCG ((((((((...((((((((+))))))))...))))))))”: the Tm came out at 47.8 °C.
On to “CGACGTGCCCCATGTGCTG+CAGCACATGGGGCACGTCG (((((((((((((((((((+)))))))))))))))))))”, for which the Tm turned out to be 67.7 °C.
With “CGACGTGCCTCATGTGCTG+CAGCACATCTAGCACGTCG ((((((((...((((((((+))))))))...))))))))” the figure was 47.8 °C; with “CGACGTGCGCAATGTGCTG+CAGCACATTCGGCACGTCG ((((((((..(((((((((+)))))))))..))))))))”, 52.5 °C; with “CGACGTGCCTCATGTGCTG+CAGCACATTAGGCACGTCG ((((((((((.((((((((+)))))))).))))))))))”, 56.3 °C.
“CGACGTGCGGAATGTGCTG+CAGCACATGCCGCACGTCG ((((((((((.((((((((+)))))))).))))))))))”: the Tm was found to be 62.1 °C.

By Tm is commonly meant the temperature at the midpoint of the melting transition.
